Reference: patent US20240325575A1 (WHITEHEAD INSTITUTE FOR BIOMEDICAL RESEARCH, published 2024)

T1: Class II MHC (mouse, on splenocytes and lymphoid organs) (mouse, UniProt P14434 24-256; P14483 28-265)
T1 construct: whole, on cells; also called Class II MHC products; Class II MHC molecules
T1 sequence (MHC II alpha, looked up): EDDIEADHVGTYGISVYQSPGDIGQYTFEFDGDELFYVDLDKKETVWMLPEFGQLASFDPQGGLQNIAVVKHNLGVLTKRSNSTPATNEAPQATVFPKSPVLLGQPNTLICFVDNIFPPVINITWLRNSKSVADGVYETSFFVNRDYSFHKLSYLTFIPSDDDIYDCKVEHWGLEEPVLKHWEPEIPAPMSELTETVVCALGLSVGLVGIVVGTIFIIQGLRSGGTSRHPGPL
T1 sequence (MHC II beta, looked up): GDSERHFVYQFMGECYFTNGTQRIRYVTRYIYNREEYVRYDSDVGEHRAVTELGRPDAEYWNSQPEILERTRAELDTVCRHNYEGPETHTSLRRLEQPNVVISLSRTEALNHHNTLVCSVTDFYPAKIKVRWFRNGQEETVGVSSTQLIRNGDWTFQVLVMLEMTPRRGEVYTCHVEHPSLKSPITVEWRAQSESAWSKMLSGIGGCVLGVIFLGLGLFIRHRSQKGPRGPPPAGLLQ


How the values were obtained:
[1] = biological target: T2, CD11b (mouse, on the CD11b+ mutuDC dendritic cell line and on myeloid cells in vivo) (mouse, UniProt P05555 17-1153); assay: FACS, CD11b+ mutuDC dendritic cell line stained in vitro with Alexa647-labeled DC13 monomer or dimer; reference DC13 monomer
T2 construct: whole, on cells; On cells CD11b is paired with CD18
T2 sequence (P05555 17-1153): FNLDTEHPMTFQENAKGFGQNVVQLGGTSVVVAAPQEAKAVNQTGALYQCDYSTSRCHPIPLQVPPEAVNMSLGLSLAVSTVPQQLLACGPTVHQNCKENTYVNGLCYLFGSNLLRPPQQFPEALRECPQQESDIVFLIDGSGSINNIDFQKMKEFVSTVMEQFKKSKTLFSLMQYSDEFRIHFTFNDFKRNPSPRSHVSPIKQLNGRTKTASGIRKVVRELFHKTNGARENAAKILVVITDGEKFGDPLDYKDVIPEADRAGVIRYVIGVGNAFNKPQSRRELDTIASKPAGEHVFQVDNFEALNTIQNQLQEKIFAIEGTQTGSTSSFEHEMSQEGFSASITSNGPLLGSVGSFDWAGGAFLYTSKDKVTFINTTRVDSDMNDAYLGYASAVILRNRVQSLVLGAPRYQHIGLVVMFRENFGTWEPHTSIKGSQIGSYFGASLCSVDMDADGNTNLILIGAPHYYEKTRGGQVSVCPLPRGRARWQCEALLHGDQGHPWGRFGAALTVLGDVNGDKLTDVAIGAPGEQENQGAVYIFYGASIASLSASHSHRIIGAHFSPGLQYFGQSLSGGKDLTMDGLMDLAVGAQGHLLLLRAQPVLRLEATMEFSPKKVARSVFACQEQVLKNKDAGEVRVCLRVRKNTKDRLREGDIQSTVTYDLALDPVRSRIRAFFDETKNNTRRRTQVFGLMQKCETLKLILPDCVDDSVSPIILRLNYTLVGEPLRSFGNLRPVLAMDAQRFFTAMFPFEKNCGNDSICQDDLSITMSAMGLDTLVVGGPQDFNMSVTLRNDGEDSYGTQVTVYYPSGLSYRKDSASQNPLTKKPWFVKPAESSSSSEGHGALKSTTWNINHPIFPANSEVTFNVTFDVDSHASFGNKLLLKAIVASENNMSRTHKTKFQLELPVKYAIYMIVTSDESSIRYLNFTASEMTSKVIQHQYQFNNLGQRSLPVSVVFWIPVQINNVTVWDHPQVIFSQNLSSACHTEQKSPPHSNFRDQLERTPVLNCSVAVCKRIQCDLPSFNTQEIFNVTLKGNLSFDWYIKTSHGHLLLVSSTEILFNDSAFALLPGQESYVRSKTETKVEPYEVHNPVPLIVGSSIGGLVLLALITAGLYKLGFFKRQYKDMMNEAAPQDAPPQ
Description: (§1) FIGS. 3A-3D (FIGS. 3A-3B) show dimers that are able to stain their targets with increased efficiency compared to their corresponding monomers; for FIG. 3A: cells were stained in vitro with the indicated concentrations of Alexa647-labeled VHH monomers or dimers; for FIG. 3B: equal amount of DC8 monomer and DC8-dimer is injected IV. 2 h p.i., the mice are euthanized and spleens are excised for two-photon imaging. (FIG. 3C) Equal amount of DC8 with or without PEG, both equipped with Texas Red is injected IV. 3 h p.i., the mice are euthanized and spleens are excised for two-photon imaging. (FIG. 3D) Equal amount of DC8 with or without PEG (0.4 nmols), all equipped with Alexa647 is injected IV. 3 h p.i., the mice are euthanized and spleen is excised. Cells were harvested and analyzed with FACS.
(§2) Four sortase substrates were designed and synthesized for production of dimers or PEGylated VHHs (FIG. 1). The substrates either contain two bioorthogonal handles or a handle and a fluorophore. The Alexa647-labeled substrate was designed such that the reaction products could be used in FACS experiments to estimate relative in vitro binding affinities. […] For DC8 (anti Class II), splenocytes were stained with different concentrations of monomers and dimers and analyzed by FACS. […] The in vivo binding characteristics of the VHH dimers versus monomers were evaluated. […]

[2] = biological target: T1, Class II MHC (mouse, on splenocytes and …); assay: FACS, splenocytes stained in vitro with different concentrations of Alexa647-labeled DC8 monomer or dimer; reference DC8 monomer
Description: as §1, §2

[3] = biological target: T1, Class II MHC (mouse, on splenocytes and …); assay: FACS of spleen cells harvested 3 h after i.v. injection of Alexa647-labeled VHH into B6 mice; reference non-PEGylated DC8
Excerpt: Specificity was established by blocking the targets of these VHHs by introduction of unlabeled VHHs as competitors prior to imaging. […] To further confirm the specificity of the dimers in the absence of competing VHHs, MHC II^{-/-} and CD11b^{-/-} mice were imaged. No PET signals were detected in lymphoid organs, further confirming the specificity of both dimers (FIGS. 4E-4G). […] These experiments helped set the stage to explore ability of VHH dimers to image tumors. Two types of tumors were imaged with the developed bivalent VHHs by engraftment of mice with the B16 melanoma or the pancreatic tumor cell line panc02. Both the dimers readily detected the lymphoid organs as well as the B16 melanoma tumor or the panc02 graft. Upon excision, the panc-tumors were no more than ˜1-2 mm in diameter, showing the method to be sensitive. Postmortem biodistribution analysis correlated well with the FACS and two-photon results as well (FIGS. 5A-5B). It was examined whether circulatory half-life could be manipulated to further improve the signal to noise ratio. PEGylation of VHHs results in increased circulatory half-life, where the increase correlates with the size of the attached PEG group^{[15]}. VHHs sortagged with substrate 2 or 3 were reacted with DBCO-functionalized PEG (5 kDa, 10 kDa or 20 kDa) to yield the final PEGylated VHHs (FIGS. 2E-2F). B6 mice received 5 μg of PEGylated VHH and were euthanized 3 h later, followed by dissection of lymph nodes and spleen for FACS and two-photon microscopy.

Binder	percent increase in staining versus non-PEGylated DC8 [3] [%]	also measured
DC13 dimer (bivalent anti CD11b VHH, two DC13 joined via their C-termini by sortase and DBCO-azide click chemistry) (VHH, C-terminal (Gly)3 continues as -PEG12-Cys(Alexa647, Texas Red or TCO/18F-tetrazine)-PEG5-Lys(azide); the azide is clicked to the DBCO of the other chain; C-terminal Cys carries maleimide-DBCO, clicked to the azide of the other chain, Label differs by assay (Alexa647, 18F); also called DC13-dimer-Alexa647; 18F-DC13 dimer) VHH 1: QVQLQESGGGLVQTGGSLRLSCAASGVDFNWYSMGWFRQAPGKEREYVASIDQGGELDYAISVKGRFTISRDNAKNMVYLQMNSLKPEDTAVYYCAADFSGRGASNPDKYKYWGQGTQVTVSS VHH 2: QVQLQESGGGLVQTGGSLRLSCAASGVDFNWYSMGWFRQAPGKEREYVASIDQGGELDYAISVKGRFTISRDNAKNMVYLQMNSLKPEDTAVYYCAADFSGRGASNPDKYKYWGQGTQVTVSS	–	fold better binding than the corresponding monomer [1]: ~2.3 fold
DC8 dimer (bivalent anti Class II MHC VHH, two DC8 joined via their C-termini by sortase and DBCO-azide click chemistry) (VHH, C-terminal (Gly)3 continues as -PEG12-Cys(Alexa647, Texas Red or TCO/18F-tetrazine)-PEG5-Lys(azide); the azide is clicked to the DBCO of the other chain; C-terminal Cys carries maleimide-DBCO, clicked to the azide of the other chain, Label differs by assay (Alexa647, Texas Red, 18F); also called 18F-DC8 dimer; anti Class II MHC dimer) VHH 1: QVQLQESGGGLVQPGGSLRLSCTASGFTFSTYYMSWVRKAPGKGPEWVSVMNSSGGDTRYADFVKGRFTISRDNAKNTLYLQMNSLKPEDTALYYCAQGRSDIYPTFTRGQGTQVTVSS VHH 2: QVQLQESGGGLVQPGGSLRLSCTASGFTFSTYYMSWVRKAPGKGPEWVSVMNSSGGDTRYADFVKGRFTISRDNAKNTLYLQMNSLKPEDTALYYCAQGRSDIYPTFTRGQGTQVTVSS	–	fold better binding than the corresponding monomer [2]: ~3.3 fold
DC8-alexa647-PEG-5 kDa (site-specifically PEGylated DC8) (VHH, C-terminal (Gly)3 continues as -PEG12-Cys(Alexa647, Texas Red or TCO/18F-tetrazine)-PEG5-Lys(azide); the azide is clicked to DBCO-PEG 5 kDa, Alexa647 form used for FACS, 18F form for PET and biodistribution; also called 5 kDa PEG-conjugated DC8; PEGylated DC8-Alexa647) VHH: QVQLQESGGGLVQPGGSLRLSCTASGFTFSTYYMSWVRKAPGKGPEWVSVMNSSGGDTRYADFVKGRFTISRDNAKNTLYLQMNSLKPEDTALYYCAQGRSDIYPTFTRGQGTQVTVSS	~30	–

More lines, main results first:

percent increase in staining versus non-PEGylated DC8 [3] [%]	Binder	also measured
~100	DC8-alexa647-PEG-10 kDa (site-specifically PEGylated DC8) (VHH, C-terminal (Gly)3 continues as -PEG12-Cys(Alexa647, Texas Red or TCO/18F-tetrazine)-PEG5-Lys(azide); the azide is clicked to DBCO-PEG 10 kDa, Alexa647 form used for FACS, 18F form for PET and biodistribution; also called 10 kDa PEG-conjugated DC8; PEGylated DC8-Alexa647) VHH: QVQLQESGGGLVQPGGSLRLSCTASGFTFSTYYMSWVRKAPGKGPEWVSVMNSSGGDTRYADFVKGRFTISRDNAKNTLYLQMNSLKPEDTALYYCAQGRSDIYPTFTRGQGTQVTVSS	–
~220	DC8-Alexa647-PEG-20 kDa (site-specifically PEGylated DC8) (VHH, C-terminal (Gly)3 continues as -PEG12-Cys(Alexa647, Texas Red or TCO/18F-tetrazine)-PEG5-Lys(azide); the azide is clicked to DBCO-PEG 20 kDa, Alexa647 form used for FACS, 18F form for PET and biodistribution; also called 20 kDa PEG-conjugated DC8; PEGylated DC8-Alexa647) VHH: QVQLQESGGGLVQPGGSLRLSCTASGFTFSTYYMSWVRKAPGKGPEWVSVMNSSGGDTRYADFVKGRFTISRDNAKNTLYLQMNSLKPEDTALYYCAQGRSDIYPTFTRGQGTQVTVSS	–
